Starred links: 1 amine or outer side, 2 acyl side, 3 side chain; linkers in the order of their positions; H or OH if unused. Positions of bridges follow the written chain, without caps; N, C: chain ends. Non-standard residues stand in square brackets, D forms with d. Residues, ends and D or L forms follow the SMILES beside them. No end group written: not given here. X4 = O=C([C@H](Cc1ccc2cc(-c3ccc(N4CCOCC4)cc3)ccc2c1)N[*:1])[*:2]; Trp(7-Me) = Cc1cccc2c(C[C@H](N)C(=O)O)c[nH]c12; AEF = NCCOc1ccc(C[C@H](N)C(=O)O)cc1; 3Pal = N[C@@H](Cc1cccnc1)C(=O)O; Pen = CC(C)(S)[C@H](N)C(=O)O; Thp = NC1(C(=O)O)CCOCC1; Sar = CNCC(=O)O
T1: IL-23R (Homo sapiens, UniProt Q5VWK5)
T1 construct: host or cells: HEK293
T1 sequence (Q5VWK5 24-629): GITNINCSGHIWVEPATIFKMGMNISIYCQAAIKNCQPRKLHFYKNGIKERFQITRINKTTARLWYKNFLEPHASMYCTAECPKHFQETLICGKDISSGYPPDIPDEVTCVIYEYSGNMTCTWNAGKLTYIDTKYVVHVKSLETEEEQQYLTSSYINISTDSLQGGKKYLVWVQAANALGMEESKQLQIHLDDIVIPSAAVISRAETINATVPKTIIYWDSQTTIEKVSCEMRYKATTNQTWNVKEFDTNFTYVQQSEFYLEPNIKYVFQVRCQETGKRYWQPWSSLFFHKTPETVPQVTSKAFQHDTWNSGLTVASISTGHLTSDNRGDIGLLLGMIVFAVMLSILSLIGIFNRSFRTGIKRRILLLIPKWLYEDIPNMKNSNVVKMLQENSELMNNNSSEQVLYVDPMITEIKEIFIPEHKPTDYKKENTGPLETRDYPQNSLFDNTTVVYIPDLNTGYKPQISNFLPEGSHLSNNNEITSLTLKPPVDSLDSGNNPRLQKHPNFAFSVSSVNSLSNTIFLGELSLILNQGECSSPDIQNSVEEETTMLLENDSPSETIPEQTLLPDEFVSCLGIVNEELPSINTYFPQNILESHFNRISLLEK

T2: interleukin-23 receptor (IL-23R), Q5VWK5
T2 chain: T1 sequence (Q5VWK5 24-629)

B1: SEQ ID NO: 86 (peptide)
peptide: R[Pen]NT[Trp(7-Me)]K(Ac)[Pen][2‑amino‑3‑(4-(2-aminoethoxy)phenyl)propanoic acid][2‑amino‑3‑(6-hydroxynaphthalen-2-yl)propanoic acid][Thp]KN[3Pal][Sar]
modifications: not fully specified (bridges); ends and bridges not checked; also: K11: lipidated lysine, lipid not given here
B2: SEQ ID NO: 87 (peptide)
peptide: R[Pen]NT[Trp(7-Me)]K(Ac)[Pen][2‑amino‑3‑(4-(2-aminoethoxy)phenyl)propanoic acid][2‑amino‑3‑(6-hydroxynaphthalen-2-yl)propanoic acid][Thp]KN[3Pal][Sar]
modifications: not fully specified (bridges); ends and bridges not checked; also: K11: lipidated lysine, lipid not given here
B3: SEQ ID NO: 84 (peptide)
peptide: R[Pen]NT[Trp(7-Me)]K[Pen][2‑amino‑3‑(4-(2-aminoethoxy)phenyl)propanoic acid][2‑amino‑3‑(6-hydroxynaphthalen-2-yl)propanoic acid][Thp]EN[3Pal][Sar]
modifications: not fully specified (bridges); ends and bridges not checked; also: K6: lipidated lysine, lipid not given here
B4: SEQ ID NO: 85 (peptide)
peptide: K[Pen]NT[Trp(7-Me)]K(Ac)[Pen][2‑amino‑3‑(4-(2-aminoethoxy)phenyl)propanoic acid][2‑amino‑3‑(6-hydroxynaphthalen-2-yl)propanoic acid][Thp]K(Ac)N[3Pal][Sar]
modifications: not fully specified (bridges); ends and bridges not checked; also: K1: lipidated lysine, lipid not given here

Legend:
IL-23R = biological target: T1, IL-23R; experiment: IL23R Reporter Assay; type: cell-based; settings: HEK293 cells containing IL-23R, IL-12Rβ1 and STAT-inducible luciferase reporter; 10 ng/mL IL-23; 5 h; read-out: IC50
Procedure: Compounds were serially diluted in 100% (v/v) DMSO) and plated using an Echo acoustic dispenser (Labcyte) into 1536-well non-treated black assay plates (Corning #9146). […] After 5 h at 37° C., 5% CO2, 95% relative humidity, cells were placed at 20° C. and treated with BioGlo reagent (Promega) according to the Manufacturer's instructions. Luminescence was measured on a Pherastar FSX (BMG LabTech).

[1] = biological target: T2, interleukin-23 receptor (IL-23R), Q5VWK5; experiment: cell-based or functional assay

Molecule | IL23R Reporter Assay IC50 [1] [nM] | also measured
CC(=O)NCCCC[C@@H]1NC(=O)[C@H](Cc2c[nH]c3c(C)cccc23)NC(=O)[C@H]([C@@H](C)O)NC(=O)[C@H](CC(N)=O)NC(=O)[C@@H](NC(=O)[C@@H](CCCNC(=N)N)NC(C)=O)C(C)(C)SSC(C)(C)[C@@H](C(=O)N[C@@H](Cc2ccc(OCCN)cc2)C(=O)N[C@@H](Cc2ccc3cc(-c4ccc(N5CCOCC5)cc4)ccc3c2)C(=O)NC2(C(=O)N[C@@H](CCC(=O)O)C(=O)N[C@@H](CC(N)=O)C(=O)NC3(C(N)=O)CCOCC3)CCOCC2)NC1=O [SEQ ID NO: 432, MeCO-r-Pen(3)-N-T-7MeW-K(Ac)-Pen(3)-AEF-2Nal6(Ph4(NMorph))-THP-E-N-THP-CONH2] (Ac-[dR][Pen]NT[Trp(7-Me)]K(Ac)[Pen][AEF][X4][Thp]EN[Thp]-NH2; disulfide 2-7) |  | IC50 (IL-23R): > 100 nM
B1 | < 10 | 
R[Pen]NT[Trp(7-Me)]K(Ac)[Pen][2‑amino‑3‑(4-(2-aminoethoxy)phenyl)propanoic acid][2‑amino‑3‑(5-bromonaphthalen-2-yl)propanoic acid][Thp]EN[Thp] (disulfide 2-7 (inferred); ends not checked) [SEQ ID NO: 443] |  | PBMC pSTAT3 IC50 [1]: > 1 nM
B2 | < 10 | 
B3 | < 10 | 
B4 | < 10 | 

— patent US20240279281A1, “Peptide Inhibitors of Interleukin-23 Receptor” (Janssen Pharmaceutica NV, priority 2023, published 2024)
